Experimental data taken from article PMC8003079, “Virus-Like Particles Produced Using the Brome Mosaic Virus Recombinant Capsid Protein Expressed in a Bacterial System” (International Journal of Molecular Sciences, 2021).

Experiments:
[1] = target: the molecule itself; test: MST; labelled rCP (RED-NHS 647, 50 nM) titrated with unlabelled rCP (from 15 uM); 50 mM Tris pH 8.5, 5 mM MgCl2, 150 mM NaCl; step of self-association not stated
[2] = target: the molecule itself; test: cross-linking; 5 mM DSS, rCP in MST buffer pH 7.5; 5, 10, 15 and 30 min; SDS-PAGE
[3] = target: the molecule itself; test: MST; labelled rCP (RED-NHS 647, 50 nM) titrated with unlabelled rCP (from 15 uM); 50 mM Tris pH 7.5, 5 mM MgCl2, 300 mM NaCl; step of self-association not stated
[4] = target: the molecule itself; test: MST; labelled rCP (RED-NHS 647, 50 nM) titrated with unlabelled rCP (from 15 uM); 50 mM Tris pH 6.8, 5 mM MgCl2, 150 mM NaCl; step of self-association not stated
[5] = target: the molecule itself; test: MST; labelled rCP (RED-NHS 647, 50 nM) titrated with unlabelled rCP (from 15 uM); 50 mM Tris pH 7.5, 5 mM MgCl2, 150 mM NaCl; step of self-association not stated
[6] = target: the molecule itself; test: MST; labelled rCP (RED-NHS 647, 50 nM) titrated with unlabelled rCP (from 15 uM); 50 mM Tris pH 7.5, 5 mM MgCl2, 600 mM NaCl; step of self-association not stated
[7] = target: the molecule itself; test: MST; labelled rCP (RED-NHS 647, 50 nM) titrated with unlabelled rCP (from 15 uM); 50 mM Tris pH 7.5, 5 mM MgCl2, 1000 mM NaCl; step of self-association not stated
[8] = target: the molecule itself; test: cryo-TEM imaging; empty VLPs assembled without cargo by two-step dialysis; vitrified samples, 120 kV

Protein	Kd [1]	stoichiometry N [2]	Kd [3]	Kd [4]	Kd [5]	Kd [6]	Kd [7]	binding result [8]
recombinant brome mosaic virus (BMV) capsid protein (natural protein, brome mosaic virus capsid (coat) protein; In the MST assay one copy was labelled with Monolith NT Protein Labeling Kit RED-NHS 647 and titrated with unlabelled rCP; also called rCP; CP; source: E. coli Rosetta 2(DE3)pLysS, purified (Ni-NTA, TEV digestion, second Ni-NTA); not shown: His tag (inferred from Ni-NTA purification; vector pMCSG48), N-terminal, cleaved) MSTSGTGKMTRAQRRAAARRNRWTARVQPVIVEPLAAGQGKAIKAIAGYSISKWEASSDAITAKATNAMSITLPHELSSEKNKELKVGRVLLWLGLLPSVAGRIKACVAEKQAQAEAAFQVALAVADSSKEVVAAMYTDAFRGATLGDLLNLQIYLYASEAVPAKAVVVHLEVEHVRPTFDDFFTPVYR	175 nM	2	62 nM	6.8 nM	35 nM	72 nM	111 nM	–
mutated BMV capsid protein (L123D and F183T) (natural protein, brome mosaic virus, brome mosaic virus capsid (coat) protein with two designed mutations; also called rCP mutant; mutated rCP; source: E. coli Rosetta 2(DE3)pLysS, purified as the wild-type BMV CP (Ni-NTA, TEV digestion, second Ni-NTA); not shown: His tag (inferred from Ni-NTA purification; vector pMCSG48), N-terminal, cleaved) MSTSGTGKMTRAQRRAAARRNRWTARVQPVIVEPLAAGQGKAIKAIAGYSISKWEASSDAITAKATNAMSITLPHELSSEKNKELKVGRVLLWLGLLPSVAGRIKACVAEKQAQAEAAFQVADAVADSSKEVVAAMYTDAFRGATLGDLLNLQIYLYASEAVPAKAVVVHLEVEHVRPTFDDTFTPVYR	–	–	–	–	–	–	–	binds
